Measured values published in patent US20170189519A1.

Tests used:
Conditions in all cases: remark: other sources report otherwise
s127H1-t2-cl18long [1] = assay: SEC-MALS with Fab fragments, protein of fraction 3
s127H1-t2-cl18long [2] = assay: SEC-MALS with Fab fragments, protein of fraction 3 (ca. 110 kD alone)
s127H1-t2-cl18long [3] = target: s127H1-t2-cl18long
26H1 = assay: ELISA, coated CR6261, P. pastoris culture medium

B1: Fab fragment of CR6261 (Fab, V domains shown)
VH: EVQLVESGAEVKKPGSSVKVSCKASGGPFRSYAISWVRQAPGQGPEWMGGIIPIFGTTKYAPKFQGRVTITADDFAGTVYMELSSLRSEDTAMYYCAKHMGYQVRETMDVWGKGTTVTVSS
VL: QSVLTQPPSVSAAPGQKVTISCSGSSSNIGNDYVSWYQQLPGTAPKLLIYDNNKRPSGIPDRFSGSKSGTSATLGITGLQTGDEANYYCATWDRRPTAYVVFGGGTKLTVLG
**Q.** What does the source list for B1?
**A.** Fab fragments bound per trimer (Fab fragments) (s127H1-t2-cl18long [1]): 3; size of the complex formed (s127H1-t2-cl18long [2]): 215 kD

B2: CR6261 (antibody, V domains shown)
VH: EVQLVESGAEVKKPGSSVKVSCKASGGPFRSYAISWVRQAPGQGPEWMGGIIPIFGTTKYAPKFQGRVTITADDFAGTVYMELSSLRSEDTAMYYCAKHMGYQVRETMDVWGKGTTVTVSS
VL: QSVLTQPPSVSAAPGQKVTISCSGSSSNIGNDYVSWYQQLPGTAPKLLIYDNNKRPSGIPDRFSGSKSGTSATLGITGLQTGDEANYYCATWDRRPTAYVVFGGGTKLTVLG
**Q.** Which results are given for B2?
**A.** Kd (s127H1-t2-cl18long [3]): 0.7 nM; CR6261 binding signal (26H1): 78800
